Results taken from FireProtDB (doi:10.1016/j.bpc.2006.12.004).
Where “and” joins values, the source holds several entries; their conditions need not be identical. Equal entries are not always repeated.

Details: pH 8.4, Thermal, Capillary electrophoresis, whole UniProt chain shown; for unfolding free energy: 25 °C
[1] = Aspergillus oryzae (strain ATCC 42149 / RIB 40), Tris Gly 25 mM 192 mM, NaCl 30 mM
[2] = Aspergillus oryzae (strain ATCC 42149 / RIB 40), Tris Gly fructose 25 mM 192 mM 0.57 M, NaCl 30 mM
[3] = Aspergillus oryzae (strain ATCC 42149 / RIB 40), Tris Gly fructose 25 mM 192 mM 1.21 M, NaCl 30 mM
[4] = Aspergillus oryzae (strain ATCC 42149 / RIB 40), Tris Gly fructose 25 mM 192 mM 1.52 M, NaCl 30 mM
[5] = Aspergillus oryzae (strain ATCC 42149 / RIB 40), Tris Gly sucrose 25 mM 192 mM 0.15 M, NaCl 30 mM
[6] = Aspergillus oryzae (strain ATCC 42149 / RIB 40), Tris Gly sucrose 25 mM 192 mM 0.31 M, NaCl 30 mM
[7] = Aspergillus oryzae (strain ATCC 42149 / RIB 40), Tris Gly sucrose 25 mM 192 mM 0.47 M, NaCl 30 mM
[8] = Aspergillus oryzae (strain ATCC 42149 / RIB 40), Tris Gly sucrose 25 mM 192 mM 0.63 M, NaCl 30 mM
[9] = Aspergillus oryzae (strain ATCC 42149 / RIB 40), Tris Gly sucrose 25 mM 192 mM 0.80 M, NaCl 30 mM
[10] = Bos taurus, Tris Gly 25 mM 192 mM, NaCl 25 mM
[11] = Bos taurus, Tris Gly fructose 25 mM 192 mM 1.21 M, NaCl 25 mM
[12] = Bos taurus, Tris Gly sucrose 25 mM 192 mM 0.15 M, NaCl 25 mM
[13] = Bos taurus, Tris Gly sucrose 25 mM 192 mM 0.31 M, NaCl 25 mM
[14] = Bos taurus, Tris Gly sucrose 25 mM 192 mM 0.47 M, NaCl 25 mM
[15] = Bos taurus, Tris Gly sucrose 25 mM 192 mM 0.63 M, NaCl 25 mM
[16] = Bos taurus, Tris Gly sucrose 25 mM 192 mM 0.96 M, NaCl 25 mM

B1: Guanyl-specific ribonuclease T1 wild type, P00651 (protein)
chain: MMYSKLLTLTTLLLPTALALPSLVERACDYTCGSNCYSSSDVSTAQAAGYQLHEDGETVGSNSYPHKYNNYEGFDFSVSSPYYEWPILSSGDVYSGGSPGADRVVFNENNQLAGVITHTGASGNNFVECT
unfolding free energy [1]: 8.2 kcal/mol | unfolding free energy (Aspergillus oryzae (strain ATCC 42149 / RIB 40), Tris Gly fructose 25 mM 192 mM 0.29 M, NaCl 30 mM): 9.1 kcal/mol | unfolding free energy [2]: 9.5 kcal/mol | unfolding free energy [3]: 10.5 kcal/mol | unfolding free energy [4]: 11.2 kcal/mol | unfolding free energy [5]: 9.1 kcal/mol | unfolding free energy [6]: 9.5 kcal/mol | unfolding free energy [7]: 10.2 kcal/mol | unfolding free energy [8]: 10.6 kcal/mol | unfolding free energy [9]: 11.1 kcal/mol | Tm [1]: 62.6 °C and 62.5 °C | heat capacity change of unfolding [1]: 1.3 kcal/mol/K | unfolding enthalpy (van 't Hoff) [1]: 98 kcal/mol | Tm [2]: 64.5 °C | Tm (Aspergillus oryzae (strain ATCC 42149 / RIB 40), Tris Gly fructose 25 mM 192 mM 0.89 M, NaCl 30 mM): 66 °C | Tm [3]: 66.5 °C | Tm [4]: 68 °C | Tm [5]: 63.6 °C | Tm [6]: 64.7 °C | Tm [7]: 65.9 °C | Tm [8]: 66.5 °C | Tm [9]: 67.1 °C

B2: Alpha-lactalbumin wild type, P00711 (protein)
chain: MMSFVSLLLVGILFHATQAEQLTKCEVFRELKDLKGYGGVSLPEWVCTTFHTSGYDTQAIVQNNDSTEYGLFQINNKIWCKDDQNPHSSNICNISCDKFLDDDLTDDIMCVKKILDKVGINYWLAHKALCSEKLDQWLCEKL
unfolding free energy [10]: 3.3 kcal/mol | unfolding free energy (Bos taurus, Tris Gly fructose 25 mM 192 mM 0.57 M, NaCl 25 mM): 4.5 kcal/mol | unfolding free energy [11]: 5.6 kcal/mol | unfolding free energy [12]: 3.8 kcal/mol | unfolding free energy [13]: 4.6 kcal/mol | unfolding free energy [14]: 5.3 kcal/mol | unfolding free energy [15]: 5.7 kcal/mol | unfolding free energy [16]: 7 kcal/mol | Tm [10]: 56.1 °C and 56 °C | heat capacity change of unfolding [10]: 2.1 kcal/mol/K | unfolding enthalpy (van 't Hoff) [10]: 69 kcal/mol | Tm [11]: 61.6 °C | Tm (Bos taurus, Tris Gly fructose 25 mM 192 mM 1.83 M, NaCl 25 mM): 63.2 °C | Tm [12]: 56.3 °C | Tm [13]: 57.5 °C | Tm [14]: 59 °C | Tm [15]: 60.5 °C | Tm [16]: 62.4 °C
